Assay results published in US20230312724A1 (KADMON, published 2023).
Substitutions are numbered along the chain they refer to. Where two headings read alike, the source gives them in different places.

T1: hB7-H4 (soluble human B7-H4, construct not named) (human, UniProt Q7Z7D3 25-259, limits assumed)
T1 construct: also called soluble hB7-H4
T1 sequence: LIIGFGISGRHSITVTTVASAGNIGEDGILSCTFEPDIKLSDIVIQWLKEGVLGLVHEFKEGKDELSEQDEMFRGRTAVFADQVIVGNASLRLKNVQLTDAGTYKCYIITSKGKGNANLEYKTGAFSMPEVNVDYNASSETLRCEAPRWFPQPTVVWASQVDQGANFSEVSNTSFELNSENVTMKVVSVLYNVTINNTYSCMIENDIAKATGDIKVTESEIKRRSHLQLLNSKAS

T2: human B7-H4 expressed on cells (human, UniProt Q7Z7D3 25-282)
T2 construct: Transfected CHO cells or tumor cell lines that carry hB7-H4; also called cellular hB7-H4
T2 sequence: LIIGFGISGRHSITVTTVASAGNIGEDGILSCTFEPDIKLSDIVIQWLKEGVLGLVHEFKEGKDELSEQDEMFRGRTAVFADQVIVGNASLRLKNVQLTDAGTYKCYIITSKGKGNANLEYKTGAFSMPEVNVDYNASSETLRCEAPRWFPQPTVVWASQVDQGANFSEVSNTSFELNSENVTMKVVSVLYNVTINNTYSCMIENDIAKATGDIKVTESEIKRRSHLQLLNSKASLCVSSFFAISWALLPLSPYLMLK

T3: mouse B7-H4 expressed on cells (mouse, UniProt Q7TSP5 25-257)
T3 construct: also called cellular mB7-H4; mB7-H4/CT26
T3 sequence: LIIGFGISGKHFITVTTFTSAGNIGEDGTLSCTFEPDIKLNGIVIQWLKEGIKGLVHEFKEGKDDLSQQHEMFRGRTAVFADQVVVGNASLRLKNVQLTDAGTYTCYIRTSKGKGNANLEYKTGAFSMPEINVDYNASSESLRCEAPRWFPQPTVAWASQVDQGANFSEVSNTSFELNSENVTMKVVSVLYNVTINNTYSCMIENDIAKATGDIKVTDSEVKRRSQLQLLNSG

T4: mB7-H4 (soluble mouse B7-H4, construct not named) (mouse, UniProt Q7TSP5 25-257, limits assumed)
T4 sequence: T3 sequence

T5: human B7-H4-his (human, UniProt Q7Z7D3 25-259)
T5 construct: also called hB7-H4-his; hB7-H4 his; not shown: his tag
T5 sequence: T1 sequence

T6: mouse B7-H4-his (mouse, UniProt Q7TSP5 25-257)
T6 construct: also called mB7-H4-his; mB7-H4-His; not shown: his tag
T6 sequence: T3 sequence

B1: 3F2/49A2 (antibody, human IgG1, V domains shown)
VH: QVQLVQSGAEVKKPGASVKVSCKASGYTFTAQYMYWVRQAPGQGLEWMGRINPTSGNTVYAQKLQGRVTMTRDTSTSTVYMELSSLRSEDTAVYYCARGINWFDPWGQGTLVTVSS
VL: DIQMTQSPSSLSASVGDRVTITCRASQNIDTYVNWYQQKPGKAPKLLIYAASRLHTVPSRFSGSGSGTDFTLTISSLQPEDFATYYCQQSYTSPFTFGGGTKVEIK
notes: 3F2 VH with 49A2 VL
B2: 9D11/67C3 (antibody, human IgG1, V domains shown)
VH: QVQLVQSGAEVKKPGASVKVSCKASGYTFTSYGISWVRQAPGQGLEWVGVINPNGGTTTYAQTFQGRVTMTRDTSTSTVYMELSSLRSEDTAVYYCARTGYSSGWAFDYWGRGTLVTVSS
VL: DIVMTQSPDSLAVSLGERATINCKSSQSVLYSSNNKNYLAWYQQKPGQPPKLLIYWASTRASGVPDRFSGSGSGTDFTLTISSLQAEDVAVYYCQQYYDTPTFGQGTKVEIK
notes: 9D11 VH with 67C3 VL
B3: 9D11/67E12 (antibody, human IgG1, V domains shown)
VH: B2 VH
VL: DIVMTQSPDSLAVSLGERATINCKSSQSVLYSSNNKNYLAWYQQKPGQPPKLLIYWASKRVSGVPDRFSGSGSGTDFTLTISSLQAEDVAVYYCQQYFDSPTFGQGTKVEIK
notes: 9D11 VH with 67E12 VL
B4: 9D11/68F5 (antibody, human IgG1, V domains shown)
VH: B2 VH
VL: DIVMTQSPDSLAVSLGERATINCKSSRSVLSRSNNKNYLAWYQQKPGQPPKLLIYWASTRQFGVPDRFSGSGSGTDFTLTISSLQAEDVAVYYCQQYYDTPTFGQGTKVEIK
notes: 9D11 VH with 68F5 VL
B5: 39A11/57H3 (antibody, human IgG1, V domains shown)
VH: EVQLLESGGGLVQPGGSLRLSCAASGFTFSSYGMHWVRQAPGKGLEWVASISSSSGYIYYADSVKGRFTISRDNSKNTLYLQMNSLRAEDTAVYYCARASSGMDVWGQGTTVTVSS
VL: DIQMTQSPSSLSASVGDRVTITCQASQDIRKYLNWYQQKPGKAPKLLIYAASTRESGVPSRFSGSGSGTDFTLTISSLQPEDFATYYCQQYYSLPLTFGQGTKLEIK
notes: 39A11 VH with 57H3 VL
B6: 39A11/62F9 (antibody, human IgG1, V domains shown)
VH: B5 VH
VL: B5 VL with Q24R, D28S, I29V, R30S, K31S, Y32A, L33V, N34A, T53I, L94T
notes: 39A11 VH with 62F9 VL

Legend:
[1] = biological target: T1, hB7-H4 (soluble human B7-H4, construct …); assay: ELISA, hB7-H4
Method: (§1) About 1-2 μg/ml of human or mouse B7-H4-Fc (or his-tagged) was immobilized on ELISA plates (Immuno 2HB, Thermo scientific, cat #3455) at 4° C. overnight. After blocking the plates with 3% PBS+milk, serial diluted antibodies were added to the blocked plates and incubated at RT for 1-1.5 h. After washing the plates with PBS-T (0.05%), horse radish peroxidase (HRP)-conjugated antibody targeting the hFab was added to the plate. Signals were developed by adding 3,3′,5,5′-Tetramethylbenzidine (TMB (followed 1N of H₂SO₄ to stop the reaction. The OD at 450 nm was read by ELISA plate reader (Infinite M1000 from TECAN). GraphPad from Prism was used to plot OD450 vs. antibody concentration curve and to calculate the EC50 values.

[2] = biological target: T1, hB7-H4 (soluble human B7-H4, construct …); assay: SPR (Biacore)
Method: (§2) Surface plasmon resonance experiments were performed using a Biacore T200 instrument equipped with CM5 sensor chips. The system was equilibrated in running buffer HBS-EP pH 7.4. The ligands were immobilized using amine-coupling chemistry. The surfaces of flow cells one through four were activated for 5 min using an amine coupling kit at a flow rate of […]. The ligands (human B7-H4-Fc, human B7-H4-hism and mouse B7-H4-Fc; at a concentration of 5 μg/ml in 10 mM sodium acetate, pH 5.0) were immobilized at a density of 50-100 RU on flow cell 2, 3, 4 respectively. Flow cell 1 was left blank to serve as a reference surface. All flow cell surfaces were blocked with a 5 min injection of 1 M ethanolamine, pH 8.0. To collect kinetic binding data, the respective analyte (diluted in 1×HBS-EP buffer, pH 7.4) was injected over the four flow cells at concentrations of 100 nM to 0.1 nM at a flow rate of […] and at a temperature of 25° C. The protein complex was allowed to associate and dissociate for 180 seconds and 1000 or 1200 seconds, respectively. The surfaces were regenerated with a 30 second injection of 1.5 M NaCl/0.05 M NaOH. The data were fit to a simple 1:1 interaction model using the Langmuir fit option available within the Biaevaluaton software

[3] = biological target: T2, human B7-H4 expressed on cells; assay: flow cytometry, SK-BR-3 cells
Method: (§3) Cells were harvested, washed once, and then re-suspended to the concentration of 1×10⁶ cells/ml in ice cold FACS Buffer. 25 μl of cell suspension was added to each well of a 96-well round-bottom microliter plate. Serially diluted antibodies or fusion proteins were added to each well and incubated for 1 hour at 4° C. Cells were washed three times by centrifugation at 1500 rpm for 5 minutes, and then stained with secondary antibody (1:200 dilution) for 30 min at 4° C. in the dark. Cells were washed once, re-suspended in 100 μl PBS buffer and then analyzed using Guava Flow Cytometry EasyCyte system.

[4] = biological target: T7, IgV domain of mouse B7-H4-Fc (mouse; human); assay: ELISA, coated mB7-H4 IgV domain
T7 construct: also called mB7-H4 IgV domain
Method: as §1

[5] = biological target: T3, mouse B7-H4 expressed on cells; assay: flow cytometry, CHO cells expressing mB7-H4
[6] = biological target: T8, IgC domain of mouse B7-H4-Fc (mouse; human); assay: ELISA, coated mB7-H4 IgC domain (title on the sheet: IgC domain of mB7H4)
T8 construct: also called mB7-H4 IgC domain
Method: as §1

[7] = biological target: T9, IgC domain of human B7-H4-Fc (human); assay: ELISA, coated hB7-H4 IgC domain (title on the sheet: IgC domain of hB7H4)
T9 construct: also called hB7-H4 IgC domain
Method: as §1

[8] = biological target: T4, mB7-H4 (soluble mouse B7-H4, construct …); assay: SPR (Biacore)
Method: as §2

[9] = biological target: T4, mB7-H4 (soluble mouse B7-H4, construct …); assay: ELISA, mB7-H4
Method: as §1

[10] = biological target: T10, mouse B7-H4-Fc (mouse; human); assay: ELISA, coated mB7-H4-Fc
T10 construct: also called mB7-H4-Fc; mB7-H4-hFc
Method: as §1

[11] = biological target: T5, human B7-H4-his; assay: ELISA, coated hB7-H4-his
Method: as §1

[12] = biological target: T3, mouse B7-H4 expressed on cells; assay: flow cytometry, mB7-H4/CT26 cells
Method: as §3

[13] = biological target: T6, mouse B7-H4-his; assay: ELISA, coated mB7-H4-his (title on the sheet: Binding to mB7H4-his)
Method: as §1

[14] = biological target: T1, hB7-H4 (soluble human B7-H4, construct …); assay: ELISA, hB7-H4; remark: listed apart in the source
Method: as §1

[15] = biological target: T1, hB7-H4 (soluble human B7-H4, construct …); assay: SPR (Biacore); remark: listed apart in the source
[16] = biological target: T4, mB7-H4 (soluble mouse B7-H4, construct …); assay: ELISA, mB7-H4; remark: listed apart in the source
Method: as §1

[17] = biological target: T2, human B7-H4 expressed on cells; assay: flow cytometry, SK-BR-3 cells; remark: listed apart in the source
[18] = biological target: T3, mouse B7-H4 expressed on cells; assay: flow cytometry, mB7-H4/CT26 cells; remark: listed apart in the source
[19] = biological target: T11, IgV domain of human B7-H4-Fc (human); assay: ELISA, coated hB7-H4 IgV domain
T11 construct: also called hB7-H4 IgV domain

[20] = biological target: T7, IgV domain of mouse B7-H4-Fc; assay: ELISA, coated mB7-H4 IgV domain; remark: listed apart in the source
[21] = biological target: T9, IgC domain of human B7-H4-Fc; assay: ELISA, coated hB7-H4 IgC domain
[22] = biological target: T4, mB7-H4 (soluble mouse B7-H4, construct …); assay: SPR (Biacore); values equal to Table 11
[23] = biological target: T9, IgC domain of human B7-H4-Fc; assay: ELISA, coated hB7-H4 IgC domain; remark: listed apart in the source
[24] = biological target: T8, IgC domain of mouse B7-H4-Fc; assay: ELISA, coated mB7-H4 IgC domain

T10 sequence (chain, as listed by the source): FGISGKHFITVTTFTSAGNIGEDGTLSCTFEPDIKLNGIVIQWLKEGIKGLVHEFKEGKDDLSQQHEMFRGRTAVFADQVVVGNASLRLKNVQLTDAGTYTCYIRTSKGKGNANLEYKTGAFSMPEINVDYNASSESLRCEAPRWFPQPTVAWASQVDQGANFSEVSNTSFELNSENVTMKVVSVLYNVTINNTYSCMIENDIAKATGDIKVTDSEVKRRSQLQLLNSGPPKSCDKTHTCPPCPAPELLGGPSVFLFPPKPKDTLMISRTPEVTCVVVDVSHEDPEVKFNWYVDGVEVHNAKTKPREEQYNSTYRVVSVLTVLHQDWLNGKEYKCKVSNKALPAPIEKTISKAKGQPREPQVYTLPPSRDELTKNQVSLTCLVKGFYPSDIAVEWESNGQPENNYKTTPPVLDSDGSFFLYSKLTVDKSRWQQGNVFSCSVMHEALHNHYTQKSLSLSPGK
T8 sequence (chain, as listed by the source): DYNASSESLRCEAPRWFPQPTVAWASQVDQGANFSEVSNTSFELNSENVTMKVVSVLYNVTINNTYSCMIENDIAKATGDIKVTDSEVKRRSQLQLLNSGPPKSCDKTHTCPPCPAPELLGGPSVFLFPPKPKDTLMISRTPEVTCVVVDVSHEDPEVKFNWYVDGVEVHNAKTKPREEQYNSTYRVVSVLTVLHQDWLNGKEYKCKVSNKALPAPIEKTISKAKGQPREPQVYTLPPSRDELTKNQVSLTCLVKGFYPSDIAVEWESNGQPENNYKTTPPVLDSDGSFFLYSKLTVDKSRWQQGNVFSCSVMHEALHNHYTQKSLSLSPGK
T9 sequence (chain, as listed by the source): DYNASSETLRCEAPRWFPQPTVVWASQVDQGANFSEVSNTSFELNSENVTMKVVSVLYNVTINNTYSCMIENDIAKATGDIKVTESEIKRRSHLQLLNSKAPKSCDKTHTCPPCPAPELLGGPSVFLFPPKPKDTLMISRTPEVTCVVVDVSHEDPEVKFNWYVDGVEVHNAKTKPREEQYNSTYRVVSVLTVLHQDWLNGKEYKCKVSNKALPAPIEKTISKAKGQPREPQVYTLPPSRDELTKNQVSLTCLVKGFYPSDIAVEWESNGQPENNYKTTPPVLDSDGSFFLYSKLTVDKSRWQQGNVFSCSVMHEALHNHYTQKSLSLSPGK
T7 sequence (chain, as listed by the source): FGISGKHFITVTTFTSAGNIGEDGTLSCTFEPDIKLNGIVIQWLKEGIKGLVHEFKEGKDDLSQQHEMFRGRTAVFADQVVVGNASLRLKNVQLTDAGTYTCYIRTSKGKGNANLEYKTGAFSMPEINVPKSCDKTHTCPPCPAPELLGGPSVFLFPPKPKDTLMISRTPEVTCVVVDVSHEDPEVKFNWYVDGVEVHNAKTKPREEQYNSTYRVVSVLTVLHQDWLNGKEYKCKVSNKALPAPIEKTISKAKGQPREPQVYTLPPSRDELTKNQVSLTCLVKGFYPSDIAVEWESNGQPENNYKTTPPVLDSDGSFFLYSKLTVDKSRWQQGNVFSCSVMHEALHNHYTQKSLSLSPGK
T11 sequence (chain, as listed by the source): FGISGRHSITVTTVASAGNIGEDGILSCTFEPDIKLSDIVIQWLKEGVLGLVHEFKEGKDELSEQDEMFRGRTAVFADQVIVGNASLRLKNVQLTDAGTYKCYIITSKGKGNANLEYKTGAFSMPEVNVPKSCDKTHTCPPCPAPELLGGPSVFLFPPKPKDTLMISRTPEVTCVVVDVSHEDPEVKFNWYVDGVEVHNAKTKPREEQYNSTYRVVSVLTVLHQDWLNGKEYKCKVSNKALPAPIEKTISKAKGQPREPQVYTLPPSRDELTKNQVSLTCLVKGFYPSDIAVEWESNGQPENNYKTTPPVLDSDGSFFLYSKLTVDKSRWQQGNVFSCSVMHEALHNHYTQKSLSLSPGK

Binder	EC50 [1]	Kd [2]	EC50 [3]	Kd [8]	EC50 [9]	binding result [10]	EC50 (read off the curve) [11]	EC50 [12]	EC50 (read off the curve) [13]	binding result [23]	binding result [24]	further results
B1	0.056 nM	0.015 nM	0.79 nM									binding result [4]: no binding (tested: axis value -8 (labelled log nM)); EC50 (read off the curve) [5]: ~8 nM; binding result [6]: no binding (tested: axis value -8 (labelled log nM)); binding result [7]: no binding (tested: axis value -8 (labelled log nM))
B2	0.112 nM	11.4 nM	4.06 nM	10.4 nM	0.086 nM	binds	~0.2 nM	28.2 nM	~0.2 nM			
B3	0.203 nM	6.3 nM	8.08 nM	4.66 nM	0.11 nM	binds	~0.2 nM	16.7 nM	~0.1 nM			
B4	0.778 nM	7.15 nM	9.53 nM	5.96 nM	0.145 nM	binds	~0.2 nM	31.8 nM	~0.1 nM			EC50 [14]: 0.105 nM; Kd [15]: 2.96 nM; EC50 [16]: 0.144 nM; EC50 [17]: 3.53 nM; EC50 [18]: 9.41 nM; binding result [19]: no binding (tested: log 1 nM (10 nM)); binding result [20]: no binding (tested: log 1 nM (10 nM)); EC50 (read off the curve) [21]: ~0.1 nM; Kd [22]: 2.96 nM
B5	0.086 nM	0.478 nM	2.07 nM	0.00125 nM	0.128 nM	binds		1.63 nM		no binding (tested: log 1 nM (10 nM))	no binding (tested: log 1 nM (10 nM))	koff [8]: 6.22e-07 s⁻¹
B6	0.079 nM	0.853 nM	1.31 nM	1.85 nM	0.124 nM	binds		1.32 nM		no binding (tested: log 1 nM (10 nM))	no binding (tested: log 1 nM (10 nM))	
